Experiment: yeast display, Sf9 membrane polyspecificity reagent, FACS + sequencing; frameworks hold sequencing errors
In short: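 Synthetic nanobody libraries on Saccharomyces cerevisiae BJ5465 were galactose-induced for 36–48 hours, stained 1 hour at 4 °C with 10% biotinylated, detergent-solubilized Sf9 membrane reagent and enriched on streptavidin microbeads. FACS then separated cells into low and high (top ~1%) gates by anti-HA (expression) and streptavidin (reagent binding) fluorescence. Genes were colony-PCR amplified, MiSeq 2 × 250 sequenced and CDR-length filtered. A clone's polyreactivity label is that of its gate of origin.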

Sequence	polyreactivity (PSR sort gate)
QVQLVESGGGLVQAGGSLRLSCAASGSIFYYNAMGWYRQAPGKEREFVAAIRTRGDSTYYADSVKGRFTISRDNAKNTVYLQMNSLKPEDTAVYYCAARHYGGDGNKYYYWGHGTQVTVSS	high polyreactivity
QVQLVESGGGLVQAGGSLRLSCAASGSIFYYNAMGWYRQAPGKEREFVAAITISGGDTYYADSVKGRFTISRDNAKNTVYLQMNSLKPEDTAVYYCAAESYRGYDYWGQGTQVTVSS	high polyreactivity
QVQLVESGGGLVQAGGSLRLSCAASGSIFYYNAMGWYRQAPGKERELVAAINSNGGSTYYADSVKGRFTISRDNAKNSVYFQMNSLKPEDTAVYYCNARYPGRTQGRYYYWGHGTQVTVSS	low polyreactivity
QVQLVESGGGLVQAGGSLRLSCAASGSIFYYNAMGWYRQAPGKERELVAAISSSGGSTYYADSVKGRFTISRDNAKNTVYLQMNSLKPEDTAVYYCAAKLRHWAHHTKYDYWGQGTQVTVSS	low polyreactivity
QVQLVESGGGLVQAGGSLRLSCAASGSIFYYNAMGWYRQAPGKERELVAAISWGDGITYYADSVKGRFTISRDNAKNTVYLQMNSLKPEDTAVYYCAVDYYYLPYEYWGQGTQVTVSS	high polyreactivity
QVQLVESGGGLVQAGGSLRLSCAASGSIFYYNAMGWYRQAPGKERELVAGISYTGGSTYYADSVKGRFTISRDNAKNTVYLQMNSLKPEDTAVYYCAAVRQYYFRYKINTSGYQYYYWGQGTQVTVSS	high polyreactivity
QVQLVESGGGLVQAGGSLRLSCAASGSIFYYNPMGWYRQAPWKERELVAAITGSGGSTYYADSVKGRFTISRDNAKNTVYLQMNSLKPEDTAVYYCAADYSLYGWWFRNDYWGQGTQVTVSS	low polyreactivity
QVQLVESGGGLVQAGGSLRLSCAASGSIFYYNTMGWYRQAPGKEREFVATITFSGSSTYYADSVKGRFTFSRDNAKNTVYLQMNSLKPEDTAVYYCAVTLEDYTYGYWGQGTQVTVSS	low polyreactivity
QVQLVESGGGLVQAGGSLRLSCAASGSIFYYNTMGWYRQAPGKERELVAAITSTGRTNYADSVKGRFTISRDNAKNTVYLQINSLKPVDTAVYYCAKRRFGDGDYWGQGTQVTVSS	low polyreactivity
QVQLVESGGGLVQAGGSLRLSCAASGSIFYYNVMGWYRQAPGKERELVAAISQSGVRTYYADSVKGRFTISRDNAKNTVYLQMNSLKPEDTAVYYCAAKARRLYASSYDYWGQGTQVTVSS	high polyreactivity
QVQLVESGGGLVQAGGSLRLSCAASGSIFYYNYMGWYRQAPGKERELVATITNGGGTNYADSVKGRFTISRDNAKNTVYLQMNSLKPEDTAVYYCARDVWSPDYLYDYWGQGTQVTVSS	low polyreactivity
QVQLVESGGGLVQAGGSLRLSCAASGSIFYYYAMGWYRQAPGKERELVAAIDSGGSTYYADSVKGRFTISRDNAKNTVYLQMNSLKPEDTAVYYCAADTYWFVYYGYDYWGLGTQVTVSS	low polyreactivity
QVQLVESGGGLVQAGGSLRLSCAASGSIFYYYAMGWYRQAPGKERELVAAISTGGGSTYYADSVKGRFTISRDNAKNTVYLQINSLKPEDTAVYYCAAPWGYYSSFTDDYWGHGTQVTVSS	low polyreactivity
QVQLVESGGGLVQAGGSLRLSCAASGSIFYYYAMGWYRQAPGKERELVAAITSGGRTKYADSVKGRFTISRDNAKNTVYLQMNSLKPEDTAVYYCATRAIWAYSTGYDYWGQGTQVTVSS	high polyreactivity
QVQLVESGGGLVQAGGSLRLSCAASGSIFYYYAMGWYRQAPGKERELVAAITSGGSTYYADSVKGRFTISRDNAKNTVYLQMNSLKPEDTAVYYCAAVFYAAYLRYVWYSYDYWGQGTQVTVSS	low polyreactivity
QVQLVESGGGLVQAGGSLRLSCAASGSIFYYYAMGWYRQAPGKERELVAAITSRAGDTYYADSVKGRFTISRDNAKNTVYLQMNSLKPEDTAVYYCAADFPAYYDYYYWGQGTQVTVSS	low polyreactivity
QVQLVESGGGLVQAGGSLRLSCAASGSIFYYYAMGWYRQAPGKERELVASITSGGSTYYADSVKGRFTISRDNAKNTVYLQMNILKPEDTAVYYCAADVYRTWYWWFDYWGQGTQVTVSS	high polyreactivity
QVQLVESGGGLVQAGGSLRLSCAASGSIFYYYSMGWYRQAPGKERELVAAMSTGGGSTYYADSVKGRFTISRDNAKNTVYLQMNSLKPEDTSVYYCAAPWGYYSSFTDDYWGQGTQVTVSS	low polyreactivity
QVQLVESGGGLVQAGGSLRLSCAASGSIHFEYMGWYRQAPGKERELVAAITIRDGGTYYADSVKGRFTISRDNAKNTVYLQMNSLKPEDTAVYYCNADFSGGWRYDYWGQGTQVTVSS	low polyreactivity
QVQLVESGGGLVQAGGSLRLSCAASGSIIAAYAMGWYRQAPGKERELVAAIRWNGGSTYYADSVKGRFTISRDNAKNTVYLQMISLKPEDTAVFYCAADYIYYPVYEFGYWGQGTQVTVSS	low polyreactivity
QVQLVESGGGLVQAGGSLRLSCAASGSIIAGNVMGWYRQAPGKERELVAAISRRGGRTYYADSVKGRFTISRDNAKNTVYLQMNSLKPEDTAVYYCAARRDPVLGKSDFWGQGTQVTVSS	high polyreactivity
QVQLVESGGGLVQAGGSLRLSCAASGSIIDRYAMGWYRQAPGKERELVAAISRSGGSTYYADSVKGRFTISRDNAKNTVYLQMKSLKPEDTAFYYCAAGGDSGDDWGQGTQVTVSS	low polyreactivity

Sequence	polyreactivity (PSR sort gate)
QVQLVESGGGLVQAGGSLRLSCAASGSIIDRYAMGWYRQAPGKERELVAAISYSGGRTYYADSVKGRFTISRDNAKNTVYLQMNSLKPEDTAVYYCAADSPYDEYDYWGQGTQVTVSS	high polyreactivity
QVQLVESGGGLVQAGGSLRLSCAASGSIIFLYAMGWYRQAPGKERELVASISTSGTTITYYADSVKGRFTISRDNAQNTGYLQMNSLKPEDTAVYYCAAEAYGNRDYWGQGTQVTVSS	low polyreactivity
QVQLVESGGGLVQAGGSLRLSCAASGSIIGFYVMGWYRQAPGKERELVAGISDSGGRTYYADSVKGRFTISRDNAKNTVYLQMNSLKPEDTAVYYCAAEAYKHGVWDYDYWGQGTQVTVSS	low polyreactivity
QVQLVESGGGLVQAGGSLRLSCAASGSIIGPYAMGWYRQAHGKERELVAAITFSGGSTYYADSVKGRFTISRDNSKNTVYLQMNSLKPEDTAVYYCAAEYWYYTGYDYWGQGTQVTVSS	high polyreactivity
QVQLVESGGGLVQAGGSLRLSCAASGSIIKRNAMGWYRQAPGKERELVASISSGDGSTNYADSVKGRFTISRDNAKNTVYLQMNSLKPEDTAVYYCNAPFWGYRTSFSYPVVQRFDYWGQGTQVTVSS	low polyreactivity
QVQLVESGGGLVQAGGSLRLSCAASGSIIKRNDMGWYRQAPGKERELVASITWRGGRTYYADSVKGRFTISRDNAKNTVYLQMNSLTPEDTSVYYCATTQYPSHYDAYGYWGQGTQVTVSS	high polyreactivity
QVQLVESGGGLVQAGGSLRLSCAASGSIIKSYAMGWYRQAPGKGRELVAAISSGGSTNYADSVKGRFTISRDNAKNTVYLQMNSLKPEDTAVYYCAARFRVDHRPYYYWGQGTQVTVSS	low polyreactivity
QVQLVESGGGLVQAGGSLRLSCAASGSIIKVYAMGWYRQAPGKERELVAAITSDGSTYYADSVKGRFTISRDNAKNTVYLQLNSLKPVDTAVYYCAASVYYLYFHGKYDYWGQGTQVTVSS	low polyreactivity
QVQLVESGGGLVQAGGSLRLSCAASGSIIKYYAMGWYRQAPGKERELVAAISWRGGRTYADSVKGRFTISRDNAKNTVYLQLNSLKPEDTAVYYCNARAPQGYGTHRSKYRWGPMGYWGQGTQVTVSS	high polyreactivity
QVQLVESGGGLVQAGGSLRLSCAASGSIINFNAMGWYRQQPGKERELDARINQGGGSTYYADSVKGRFTISRDNAKNTVYLQMNSLKPEDTAVYYCAAVRYVLRSPARYGYWGQGTQVTVSS	low polyreactivity
QVQLVESGGGLVQAGGSLRLSCAASGSIIPYNAMGWYRQAPGKERYLVATISSGGSTNYADSVKGRFTISRDNAKNTVYLQMNSLKPEDTAVYYCAADVIVFYYAPNYWGDIEYGYWGQGTQVTVSS	low polyreactivity
QVQLVESGGGLVQAGGSLRLSCAASGSIIRGNAMGWYRQAPGKERELVAAISGSGGSTYYADSVKGRFTISRDNAKNTVYLQMNSLKPEDTAVYYCAARYVTSIYAYYYWGQGTQVTVSS	high polyreactivity
QVQLVESGGGLVQAGGSLRLSCAASGSIIRGYTMGWYRQAPGKERELVADITQSTGSTYYADSVKGRFTISRDTAKNTVYFQMNSLKPEDTAVYYCAAVEGWYLFTSNYWGQGTQVNVSS	low polyreactivity
QVQLVESGGGLVQAGGSLRLSCAASGSIIRTYAMGWYRQAPGKERQLVATITFGGVSTYNADSVKGRFTISRDNAKNTVYLQMNSLKPEDSAVYYCAADVYTRFWRVYRFDYWGQGTQVTVSS	low polyreactivity
QVQLVESGGGLVQAGGSLRLSCAASGSIIRVNTMGWYRQAPGKERELVAGITSRGGSTYYADSVKGRFTISRDNAKNTVYLQMISLKPEDTAFYYCANRAYGTALYRGYGNWGQGTQVTVSS	low polyreactivity
QVQLVESGGGLVQAGGSLRLSCAASGSIISGYAMGWYRQAPGKERELVASISSSGGRTYYAYSVKGRYTISRDNAKNTVYLPRNSLKPEDTAVYYCNVKSYTYGYLPYDYWGQGTQVTVSS	high polyreactivity
QVQLVESGGGLVQAGGSLRLSCAASGSIISNYVMGWYRPAPGKERELVAAITRRGGRTYYADSVKGRFTISRDNAKNTVYLQMNSLKPEDTAVYYCAAERYPEAGSPYGTAEMDYWGQGTLVTVSS	high polyreactivity
QVQLVESGGGLVQAGGSLRLSCAASGSIISSYTMGWYRQAPGKERELVAVITSGDSTNYADSVKGRFTISRDNAKNTVYLEMNSLKPEDTAVYYCNADYVKVFKLQFDYWGQGTQVTVSS	low polyreactivity
QVQLVESGGGLVQAGGSLRLSCAASGSIITGYAMGWYRQAPVKERELVAGINSGTSTNYADSVKGRFTISRDNAKNTVSLQMNSLKPEDTAVYYCAKTAERRHYGVYRFDYWGQGTQVTVSS	low polyreactivity
QVQLVESGGGLVQAGGSLRLSCAASGSIIVGYAMGWYRQAPGKERELVAAISWSGGRTYYADSVKGRFTISRDNAKNTVYLQMNSLKPEDTAVYYCATVTKGSLRYNYNYWGQGTQVTVSS	high polyreactivity
QVQLVESGGGLVQAGGSLRLSCAASGSIIVLNAMGWYRQAPGKERELVAAISSDGITYYADSVKGRFTISRDNAKNTVYLQKNSLKPEDTAVYYCAAYRVDYSDAYYYWGQGTQVTVSS	low polyreactivity

— the nanobody polyreactivity screen of Harvey et al. (2022)
